Common to all, as to conditions: tags: N-terminal His6 (pDEST17, E. coli); label: 32P
Series [1] has as its target T1, QKI (Quaking) (UniProt Q96PU8-9 Q96PU8-9:1-319).
T1 sequence: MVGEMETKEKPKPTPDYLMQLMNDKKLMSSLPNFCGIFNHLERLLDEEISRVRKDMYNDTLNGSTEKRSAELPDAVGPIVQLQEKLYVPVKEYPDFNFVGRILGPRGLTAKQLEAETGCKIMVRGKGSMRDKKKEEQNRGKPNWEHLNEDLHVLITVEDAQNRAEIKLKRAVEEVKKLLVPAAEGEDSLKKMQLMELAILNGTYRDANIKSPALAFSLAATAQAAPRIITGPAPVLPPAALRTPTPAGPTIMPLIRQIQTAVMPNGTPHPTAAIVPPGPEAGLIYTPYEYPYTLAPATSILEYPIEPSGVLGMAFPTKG
Briefly: EMSA; 4SU position has no significant effect on affinity; 330 mM KCl, 10 mM MgCl2, tRNA. On the procedure:
(§1) Radiolabeled RNA (1 nM) was incubated with recombinant His6-QKI protein at various concentrations and 100 ng tRNA in 20 μl of 20 mM HEPES-KOH, pH 7.4, 330 mM KCl, 10 mM MgCl2, 0.1 mM EDTA and 0.01% IGEPAL CA630 (Sigma). After addition of 6 μl loading dye (40% glycerol, bromophenol blue in binding buffer), the solution was loaded onto a native 10% acrylamide gel containing 0.5×TBE, running at 200 V for 2 h at room temperature, using 0.5×TBE as running buffer. The protein-bound RNA and the free RNA were quantified using a phosphorimager.

In series [2] the target is T1, QKI (Quaking). Nature of the series: EMSA; binding unaffected by 4SU; 330 mM KCl, 10 mM MgCl2, tRNA. The method, then: as §1
On the technique in general: Mobility shift assays separate free from complexed probe on a gel.

For series [3], the target named is T1, QKI (Quaking). Briefly: EMSA; 330 mM KCl, 10 mM MgCl2, pH 7.4, 100 ng tRNA. The method, then: as §1

B1: QKI oligo 4SU at U2 (ssRNA)
RNA: GUAUGCCAUUAACAAAUUCAUUAACAA
modifications: 4-thiouridine at position 2
Regarding B1, the binding result with QKI (Quaking) [1] is listed as “binds”.

B2: QKI oligo 4SU at U10 (ssRNA)
RNA: GUAUGCCAUUAACAAAUUCAUUAACAA
modifications: 4-thiouridine at position 10 (position 3 of recognition element)
As to B2, in the series with QKI (Quaking) [2], the binding result is listed as “binds”.

B3: HOXD13 3'UTR QKI-site oligoribonucleotide (ssRNA)
RNA: GUAUGCCAUUAACAAAUUCAUUAACAA
For the molecule B3, in the series with QKI (Quaking) [3], the binding result is “binds”.

B4: QKI oligo 4SU at U4 (ssRNA)
RNA: GUAUGCCAUUAACAAAUUCAUUAACAA
modifications: 4-thiouridine at position 4
Turning to B4, the binding result with QKI (Quaking) [1] was “binds”.

For the origin of these results see US20150353923, “Method for Identifying RNA Segments Bound by RNA-Binding Proteins or Ribonucleoprotein Complexes” (Rockefeller University, published 2015).
